Where “and” joins values, the source holds several entries; their conditions need not be identical. Equal entries are not always repeated.

The assay addresses CD40 receptor on cells (HEK293 reporter cells expressing CD40; primary human B cells) (human) (UniProt P25942). Nature of the assay: cell-based or functional assay.

Sequence of CD40 receptor on cells (HEK293 reporter cells expressing CD40; primary human B cells) (human) (P25942 21-277): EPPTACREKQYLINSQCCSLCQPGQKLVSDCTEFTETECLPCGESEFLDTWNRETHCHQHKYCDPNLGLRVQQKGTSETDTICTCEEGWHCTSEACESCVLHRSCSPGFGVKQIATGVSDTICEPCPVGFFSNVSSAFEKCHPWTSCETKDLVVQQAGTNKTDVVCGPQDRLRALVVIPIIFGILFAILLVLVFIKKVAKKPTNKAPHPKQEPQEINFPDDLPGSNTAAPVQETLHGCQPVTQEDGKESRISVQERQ
Sequence of anti-CD40 monoclonal antibody corresponding to sequence 21.4.1 of U.S. Pat. No. 7,338,660 B2 (VH): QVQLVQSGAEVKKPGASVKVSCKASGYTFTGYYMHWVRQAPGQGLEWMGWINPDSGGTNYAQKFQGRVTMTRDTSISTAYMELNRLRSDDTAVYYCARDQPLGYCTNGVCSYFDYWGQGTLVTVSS
Sequence of anti-CD40 monoclonal antibody corresponding to sequence 21.4.1 of U.S. Pat. No. 7,338,660 B2 (VL): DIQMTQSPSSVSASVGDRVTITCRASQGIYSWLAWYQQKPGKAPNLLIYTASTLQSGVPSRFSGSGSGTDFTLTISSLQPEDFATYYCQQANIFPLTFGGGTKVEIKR

Consider “anti-CD40 monoclonal antibody corresponding to sequence 21.4.1 of U.S. Pat. No. 7,338,660 B2”, for which the EC50 [nM], % CD86, human B cells with FAP-CHO, w HSA is 0.88 nM and 0.3 nM; the EC50 [nM], % CD86, human B cells with FAP-CHO, w/o HSA was 1.9 nM and 0.51 nM; the EC50 [nM], MFI CD86, human B cells with FAP-CHO, w HSA was 0.51 nM and 2.05 nM; the EC50 [nM], MFI CD86, human B cells with FAP-CHO, w/o HSA is 1.13 nM and 4.73 nM. For the same substance, the Efficacy [MFI at highest dose], MFI CD86, human B cells with FAP-CHO, w HSA is 1530 MFI and 1870 MFI; the Efficacy [MFI at highest dose], MFI CD86, human B cells with FAP-CHO, w/o HSA is 1340 MFI and 2060 MFI; the Efficacy [MFI at highest dose], MFI CD86, human B cells with WT-CHO (no FAP), w HSA was 1470 MFI and 1900 MFI; the Efficacy [MFI at highest dose], MFI CD86, human B cells with WT-CHO (no FAP), w/o HSA was 1390 MFI and 2050 MFI.

The values above are taken from US20240279309A1.
